Laboratory results from the supplement of paper PMC9112550, “Optimization of the antimicrobial peptide Bac7 by deep mutational scanning” (BMC Biology, 2022).

test system: Escherichia coli TOP10; assay: shrunken log2 fold change of peptide-encoding DNA abundance (4.5 h post-induction vs induction); higher = less antimicrobial activity (less host growth inhibition); details: time post-induction: 4.5 h; library: site-saturation at positions 5, 18, 19, 20
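Also: peptides expressed intracellularly from a pBAD plasmid library in pooled LB shake-flask culture, induced with 0.3% L-arabinose, DNA abundance read by NGS, three biological replicates, DESeq2 with apeglm shrinkage.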

Sequence | shrunken log2 fold change
RRIRMRPPRLPRPRPRPEFNPRP | 0.301
RRIRHRPPRLPRPRPRPLLFPRP | -0.364
RRIRDRPPRLPRPRPRPFFYPRP | -0.0714
RRIRPRPPRLPRPRPRPGVCPRP | 0.428
RRIRTRPPRLPRPRPRPPGEPRP | 0.318
RRIRKRPPRLPRPRPRPGWNPRP | 0.106
RRIRWRPPRLPRPRPRPCPIPRP | -0.204
RRIRWRPPRLPRPRPRPPANPRP | 0.629
RRIRHRPPRLPRPRPRPMCWPRP | -0.178
RRIRYRPPRLPRPRPRPHGKPRP | 0.0161
RRIRDRPPRLPRPRPRPMWNPRP | 0.108
RRIRTRPPRLPRPRPRPLWLPRP | 0.165
RRIRQRPPRLPRPRPRPEICPRP | 0.0414
RRIRQRPPRLPRPRPRPEPWPRP | 0.153
RRIRSRPPRLPRPRPRPTLMPRP | 0.091
RRIRGRPPRLPRPRPRPDSMPRP | 0.245
RRIRWRPPRLPRPRPRPSPCPRP | -0.214
RRIRKRPPRLPRPRPRPYFLPRP | -0.278
RRIRGRPPRLPRPRPRPFVHPRP | 0.111
RRIRERPPRLPRPRPRPHGEPRP | -0.0812
RRIRGRPPRLPRPRPRPQRMPRP | 0.307
RRIRMRPPRLPRPRPRPYKGPRP | -0.046
RRIRMRPPRLPRPRPRPITDPRP | -0.667
RRIRRRPPRLPRPRPRPWPIPRP | 0.0239
RRIRKRPPRLPRPRPRPRSWPRP | 0.833

Sequence | shrunken log2 fold change
RRIRRRPPRLPRPRPRPIEKPRP | 0.149
RRIRQRPPRLPRPRPRPREQPRP | -0.00783
RRIRCRPPRLPRPRPRPKESPRP | 0.0858
RRIRDRPPRLPRPRPRPQQHPRP | 0.0276
RRIRQRPPRLPRPRPRPCGSPRP | -0.000687
RRIRERPPRLPRPRPRPINHPRP | 0.198
RRIRVRPPRLPRPRPRPLHKPRP | -0.192
RRIRDRPPRLPRPRPRPRLLPRP | 0.146
RRIRVRPPRLPRPRPRPICNPRP | -0.183
RRIRLRPPRLPRPRPRPSIQPRP | -1.1
RRIRVRPPRLPRPRPRPLEAPRP | 0.242
RRIRIRPPRLPRPRPRPPFGPRP | 0.255
RRIRIRPPRLPRPRPRPREFPRP | 0.0231
RRIRDRPPRLPRPRPRPGKVPRP | -0.00262
RRIRHRPPRLPRPRPRPWWLPRP | -0.0295
RRIRPRPPRLPRPRPRPHEEPRP | -0.000777
RRIRWRPPRLPRPRPRPAHTPRP | -0.172
RRIRSRPPRLPRPRPRPTNLPRP | -0.215
RRIRMRPPRLPRPRPRPKRAPRP | 2.44
RRIRVRPPRLPRPRPRPLQAPRP | 0.432
RRIRVRPPRLPRPRPRPGSYPRP | -0.186
RRIRRRPPRLPRPRPRPFYDPRP | -0.193
RRIRPRPPRLPRPRPRPRQWPRP | 0.485
RRIRFRPPRLPRPRPRPCIYPRP | -0.191
RRIRMRPPRLPRPRPRPCQNPRP | 0.0761

Sequence | shrunken log2 fold change
RRIRWRPPRLPRPRPRPPKGPRP | 0.61
RRIRGRPPRLPRPRPRPCVKPRP | 0.063
RRIRPRPPRLPRPRPRPIVTPRP | -0.164
RRIRARPPRLPRPRPRPAVSPRP | 0.431
RRIRLRPPRLPRPRPRPRRQPRP | 0.234
RRIRLRPPRLPRPRPRPIKAPRP | -0.0378
RRIRHRPPRLPRPRPRPEACPRP | -0.0115
RRIRKRPPRLPRPRPRPVADPRP | 0.14
RRIRMRPPRLPRPRPRPPAEPRP | 3.68
RRIRGRPPRLPRPRPRPKVMPRP | 0.696
RRIRVRPPRLPRPRPRPWLQPRP | -0.0274
RRIRNRPPRLPRPRPRPANTPRP | -0.242
RRIRCRPPRLPRPRPRPWSTPRP | -0.148
RRIRCRPPRLPRPRPRPITNPRP | -0.449
RRIRTRPPRLPRPRPRPWMMPRP | 0.0505
RRIRLRPPRLPRPRPRPDVQPRP | 0.0463
RRIRHRPPRLPRPRPRPAARPRP | 0.168
RRIRFRPPRLPRPRPRPMYYPRP | -0.123
RRIRVRPPRLPRPRPRPVPLPRP | -0.121
RRIRARPPRLPRPRPRPANEPRP | 0.173
RRIRWRPPRLPRPRPRPMPLPRP | -0.0398
RRIRRRPPRLPRPRPRPQMWPRP | -0.00576
RRIRKRPPRLPRPRPRPFVCPRP | 0.0717
RRIRMRPPRLPRPRPRPTLSPRP | 0.377
RRIRRRPPRLPRPRPRPFPFPRP | -0.0334
